Earlier results, collected in article PMC12851578.

Biological target: F-actin (Oryctolagus cuniculus) (UniProt P68135)
Conditions: cited from earlier work

Substance: LifeAct (from UniProt Q08641)
- Kd: 2200 nM
